This is an account of results in patent US20150010572A1 (SAMSUNG ELECTRONICS, published 2015).

Positions count from the first letter of the chain named.

What is called Kd is the equilibrium constant for the complex coming apart.

The target of assay [1] is T1, Ang-2 (R&D systems; 623-AN-025/CF) (human, UniProt O15123 19-496).
T1 sequence: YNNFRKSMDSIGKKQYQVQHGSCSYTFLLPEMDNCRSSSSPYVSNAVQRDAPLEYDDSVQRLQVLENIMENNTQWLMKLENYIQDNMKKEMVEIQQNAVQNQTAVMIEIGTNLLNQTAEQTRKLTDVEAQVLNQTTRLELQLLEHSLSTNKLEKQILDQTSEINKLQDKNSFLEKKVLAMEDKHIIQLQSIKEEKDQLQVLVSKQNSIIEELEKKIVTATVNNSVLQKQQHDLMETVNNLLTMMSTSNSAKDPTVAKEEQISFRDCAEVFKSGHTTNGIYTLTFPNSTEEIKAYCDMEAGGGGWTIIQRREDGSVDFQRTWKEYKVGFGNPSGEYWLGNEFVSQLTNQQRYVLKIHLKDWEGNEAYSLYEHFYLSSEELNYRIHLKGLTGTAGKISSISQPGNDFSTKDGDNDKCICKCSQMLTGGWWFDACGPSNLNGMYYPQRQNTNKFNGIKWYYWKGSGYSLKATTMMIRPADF
The experiment in a line: cell-based or functional assay.

Assay [2] deals with T2, recombinant hAng-2 (C-His, R&D Systems) (human, UniProt O15123 19-496).
T2 construct: Bought protein; also called human Ang-2 protein; not shown: C-terminal His tag
T2 sequence: T1 sequence
The experiment in a line: SPR, BIAcore T100; hAng-2 (C-His) captured by anti-His antibody on CM5 chip, antibody flowed. As to the method:
The binding affinities of the above 3 kinds of antibodies to human Ang-2 protein were measured by a SPR technology using a BIAcore T100 (GE Healthcare). The SPR technology uses refractive index change of light which passes a sensor chip according to the state of materials coated onto the sensor chip, and if an antigen or an antibody is flowed onto a chip coated with the antigen or antibody, it causes changes in refractive index due to their binding and Kd values are thus calculated from the measured values.
First, anti-His antibody was immobilized on a CM5 sensor chip (GE healthcare) up to 8,000 RU levels using a pH 5.0 acetate solution and an amine coupling kit (GE Healthcare). A recombinant hAng-2 (C-His, R&D Systems) protein was flowed onto the chip to be captured at 100 to 200 RU levels.

Assay [3] addresses mutant Ang-2 protein, A449 substituted with alanine (FLAG-tagged at N-terminal) (human) (UniProt O15123). The experiment in a line: ELISA, antibody coated, 250 ng FLAG-tagged mutant Ang-2, anti-FLAG-HRP, OD450 relative to native Ang-2. A general note: An ELISA detects its analyte on a solid surface through an enzyme-linked reagent.

B1: SAIT-Ang-2-AB-m8B3 (antibody, V domains shown)
VH: DVQLQESGPGLVKPSQSLSLSCTVTGYSIASDYAWNWIRQFPGNKVEWMGYINYRGNTDYNPSLKSRSSINRDTSKNQFFLQLNSVTTGDTATYYCARGNFEGAMDYWGQGTSVTVSS
VL: TIVMTQTPKFLLVSAGDRITITCKASQSVSNDVAWYQQKPGQSPKLLIYYASNRYPGVPDRFTGSGYGTDFTFTISTVQAEDLAVYFCQQDYTSPWTFGGGTELEIK
notes: also called KCLRF-BP-00293
Take B1: in assay [1], the “Ang-2-depedent Cell Adhesion Degree (%)” value is 23.6%. Moreover, the Kd in assay [2] was 0.0086 nM. In addition, the % at RBD binding (mutant Ang-2 against native Ang-2) in assay [3] was found to be 88.5%.

B2: SAIT-Ang-2-AB-m2E7 (antibody, V domains shown)
VH: DLQLQESGPGLVKPSQSLSLTCTVTGYSITSDYAWNWIRQFPGNKLEWMGYISYSGSTSYNPSLKSRISITRDTSKNQFFLQLNSLTTEDTATYYCARGDYGNYVGPMDYWGQGTSVTVSS
VL: B1 VL with T1S, I19V, Q37R, P56T, T93S, W96L, G100A, G101R, E103K, I106L
notes: also called KCLRF-BP-00294
In the case of B2, the “Ang-2-depedent Cell Adhesion Degree (%)” value in assay [1] came to 28.1%. The Kd in assay [2] was 30.6 nM. This molecule also had a % at RBD binding (mutant Ang-2 against native Ang-2) in assay [3] of 90.9%.
